Article PMC5705077 (Biochemistry, 2017)

Tests used:
[1] = target: T1, MBP-Brh2^106–1075 (Ustilago maydis, UniProt Q8NJ74 106-1075); test: pull-down
T1 sequence (looked up): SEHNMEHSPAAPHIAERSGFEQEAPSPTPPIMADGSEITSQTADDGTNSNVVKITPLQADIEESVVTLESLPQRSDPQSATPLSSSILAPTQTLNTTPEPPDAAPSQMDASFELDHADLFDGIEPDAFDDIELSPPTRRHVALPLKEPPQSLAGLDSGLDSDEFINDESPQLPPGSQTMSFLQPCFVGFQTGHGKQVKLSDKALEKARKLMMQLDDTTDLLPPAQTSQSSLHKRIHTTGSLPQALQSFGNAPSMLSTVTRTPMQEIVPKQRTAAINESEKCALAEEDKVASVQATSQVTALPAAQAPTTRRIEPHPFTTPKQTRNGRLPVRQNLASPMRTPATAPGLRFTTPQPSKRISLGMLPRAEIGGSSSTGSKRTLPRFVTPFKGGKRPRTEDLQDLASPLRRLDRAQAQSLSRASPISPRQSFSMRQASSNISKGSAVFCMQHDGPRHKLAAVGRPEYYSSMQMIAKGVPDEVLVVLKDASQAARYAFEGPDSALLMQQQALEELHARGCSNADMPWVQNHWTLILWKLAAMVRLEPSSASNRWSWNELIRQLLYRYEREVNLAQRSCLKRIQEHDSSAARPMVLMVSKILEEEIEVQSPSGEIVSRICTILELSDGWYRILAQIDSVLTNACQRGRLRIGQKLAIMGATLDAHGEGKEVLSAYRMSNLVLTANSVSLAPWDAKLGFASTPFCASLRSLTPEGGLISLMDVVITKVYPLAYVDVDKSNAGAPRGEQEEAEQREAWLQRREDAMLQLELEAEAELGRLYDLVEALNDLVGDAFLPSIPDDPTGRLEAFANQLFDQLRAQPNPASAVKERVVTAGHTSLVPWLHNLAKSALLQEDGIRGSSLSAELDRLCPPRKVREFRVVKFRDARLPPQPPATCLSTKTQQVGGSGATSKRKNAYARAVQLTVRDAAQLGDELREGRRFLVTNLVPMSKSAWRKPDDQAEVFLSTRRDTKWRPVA

[2] = target: T1, MBP-Brh2^106–1075; test: pull-down; remark: listed apart in the source

B1: Rad51 (natural protein, UniProt Q99133 1-339, looked up)
chain: MSQNAQDPAQIGEDDMGEAFGPLPVSKLEEFGISSSDCKKLAESGYNTVESIAFTPKKQLLLVKGVSEAKADKILAEAARLVPMGFTTATEFHARRNELISITTGSKNLDAILGGGMETGSITELYGEFRTGKSQLCHTLAVTCQLPVDMGGGEGKCLYIDTENTFRPTRLLAVAERFGLNGEEVLDNVAYARAYNADHQLQLLMQASAMMAESRFSLLIVDSLTSLYRTDFSGRGELSARQMHLAKFLRGLMRLADEFGVAVVITNQVVAQVDGATAFTADAKKPIGGNIVAHASTTRLSLRKGRGNQRICRIADSPCLPEADAVFAIGPEGIIDPVD
[1]
  stoichiometry N: ~2.2 Rad51 per Brh2 (mol:mol)
[2]
  fold Rad51 associated relative to the Brh2/Dss1 heterodimer: ~10 fold
